# Source: patent CN105968202A (UNIV NANCHANG, dated 2016)
# Columns and labels:
# [1] = target: T1, PSMA胞外区蛋白 (重组表达的前列腺特异性膜抗原膜外区) (UniProt Q04609 44-750, limits assumed); experiment: indirect phage-ELISA, PSMA extracellular region coated at 5 μg/mL, HRP-anti-M13 detection (ELISA-positive clone)
# T1 construct: extracellular domain; Expressed from vector pRAG2a in HEK-293 cells, purified with HisTrap FF Crude and detected with anti-His antibody, so it carries a His tag; also called PSMA蛋白; PSMA抗原
# [2] = target: T2, PSMA on LNCaP cells (前列腺癌细胞LNCaP表达PSMA) (UniProt Q04609 1-750, limits assumed); experiment: cell ELISA (HRP-anti-M13, OD450) and immunofluorescence (anti-M13 + FITC secondary) on fixed LNCaP cells versus PSMA-negative MKN45 cells
# T2 construct: whole, on cells; Endogenous PSMA on fixed LNCaP cells; PSMA-negative MKN45 gastric cancer cells served as the negative cell line; also called 前列腺特异性膜抗原
# T2 sequence (Q04609 whole entry): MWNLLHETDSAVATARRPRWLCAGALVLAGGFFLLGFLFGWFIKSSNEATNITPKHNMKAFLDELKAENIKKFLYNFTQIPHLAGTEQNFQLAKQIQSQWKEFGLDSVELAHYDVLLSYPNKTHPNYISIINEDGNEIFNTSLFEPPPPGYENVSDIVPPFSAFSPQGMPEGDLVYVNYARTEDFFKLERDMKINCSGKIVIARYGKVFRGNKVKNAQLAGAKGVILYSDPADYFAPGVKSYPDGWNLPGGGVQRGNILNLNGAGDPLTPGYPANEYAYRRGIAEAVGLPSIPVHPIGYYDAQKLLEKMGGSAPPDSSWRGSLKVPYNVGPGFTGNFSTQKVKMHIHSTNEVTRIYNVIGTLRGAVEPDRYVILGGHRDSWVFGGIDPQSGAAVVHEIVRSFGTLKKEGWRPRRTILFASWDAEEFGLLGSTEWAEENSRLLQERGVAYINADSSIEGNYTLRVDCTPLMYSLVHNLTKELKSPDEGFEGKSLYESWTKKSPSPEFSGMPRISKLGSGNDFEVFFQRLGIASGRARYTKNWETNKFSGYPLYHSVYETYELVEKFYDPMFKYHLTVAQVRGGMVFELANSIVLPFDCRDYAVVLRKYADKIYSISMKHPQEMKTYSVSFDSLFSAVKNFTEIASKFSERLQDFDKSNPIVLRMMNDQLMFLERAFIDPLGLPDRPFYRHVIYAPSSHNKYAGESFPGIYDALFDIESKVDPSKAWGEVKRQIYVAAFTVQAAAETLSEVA
# T1 sequence (Q04609 44-750 limits assumed): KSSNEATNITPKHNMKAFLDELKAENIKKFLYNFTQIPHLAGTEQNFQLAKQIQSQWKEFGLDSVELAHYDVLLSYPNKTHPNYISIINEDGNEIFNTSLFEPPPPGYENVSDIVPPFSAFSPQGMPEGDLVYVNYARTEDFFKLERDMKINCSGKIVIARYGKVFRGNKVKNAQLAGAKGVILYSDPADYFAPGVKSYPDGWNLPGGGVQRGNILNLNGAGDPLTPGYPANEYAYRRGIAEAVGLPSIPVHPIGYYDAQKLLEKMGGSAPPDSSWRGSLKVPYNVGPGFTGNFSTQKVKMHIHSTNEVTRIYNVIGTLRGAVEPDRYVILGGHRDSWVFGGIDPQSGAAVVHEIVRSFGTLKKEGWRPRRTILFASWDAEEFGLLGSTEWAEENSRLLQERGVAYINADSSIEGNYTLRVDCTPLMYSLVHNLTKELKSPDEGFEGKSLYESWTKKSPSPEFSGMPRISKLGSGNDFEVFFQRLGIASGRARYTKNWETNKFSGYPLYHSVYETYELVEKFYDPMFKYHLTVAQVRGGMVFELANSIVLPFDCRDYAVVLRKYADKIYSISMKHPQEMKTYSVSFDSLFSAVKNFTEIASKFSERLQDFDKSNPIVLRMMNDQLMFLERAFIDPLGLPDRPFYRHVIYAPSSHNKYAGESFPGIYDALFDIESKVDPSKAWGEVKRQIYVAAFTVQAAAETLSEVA
binder,measurement,setting,value
"抗前列腺特异性膜抗原单域重链抗体噬菌体阳性克隆 (VHH, The phage coat protein fusion partner and any linker are not described; also called 针对前列腺特异性膜抗原的单域重链抗体阳性克隆; 展示本发明所述纳米抗体的噬菌体克隆) VHH: QVQLVESGGGLVQAGGSLRLSCVVSGRAFRRYAMGWFRQAPGKEREFVAAIRRSRSTYYADSVKGRFTISRDNAKKTVYLQMNSLKPEDTAVYYCAADPVDSVYNTLRAWGYWGQGTQVTVSS",binding result,[1],binds
same,binding result,[2],binds
